Target: T1, human RNF130 (GOLIATH) extracellular domain (human, UniProt Q86XS8 28-194, biotin (BirA biotinylation))
T1 construct: RNF130 (GOLIATH), human, extracellular domain (ECD); also called RNF130 ECD; source: Expi293F, purified (Ni-NTA, size-exclusion chromatography), biotinylated with BirA; not shown: AVI, C-terminal, kept
T1 sequence (looked up): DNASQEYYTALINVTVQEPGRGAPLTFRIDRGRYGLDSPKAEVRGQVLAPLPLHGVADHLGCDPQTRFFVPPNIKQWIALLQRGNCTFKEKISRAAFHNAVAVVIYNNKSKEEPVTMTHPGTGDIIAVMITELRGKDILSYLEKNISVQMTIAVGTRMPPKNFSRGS
Test: SPR; Biacore T100; biotinylated ECD (ligand) captured on a streptavidin (SA) series S chip, ~100-200 RU; non-biotinylated VHH as analyte in HBS-P+ buffer, twofold dilutions from 500 nM (RNF128 E2, RNF130 D1) or 1000 nM (RNF43 C8); injection 60 s at 30 ul/min, dissociation 240 s; regeneration 1 x 10 sec glycine pH 2.5; 1:1 Langmuir model or equilibrium
Conditions: both partners purified

B1: RNF130-D1 nanobody (VHH)
VHH: QVQLQESGGGLVQAGGSLRLSCAASGTISFIGYMGWYRQAPGKERELVASIASGTSTYYADSVKGRFTISRDNAKNTVYLQMNSLKPEDTAVYYCAATQYIQDVHRYWGQGTQVTVSS
notes: VHH selected from a synthetic yeast-display nanobody library against the human RNF130 ECD; Non-biotinylated analyte in SPR; source: Expi293F, purified (Ni-NTA, size-exclusion chromatography)
Kd: 6.4 nM
